Assay results reported in patent US20050164936.

Key:
MCP-2, P80075 = molecular target: T1, MCP-2, P80075
T1 chain: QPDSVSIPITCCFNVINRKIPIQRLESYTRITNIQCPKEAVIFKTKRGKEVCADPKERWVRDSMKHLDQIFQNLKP

[1] = molecular target: monocyte chemotactic protein-3 (MCP-3), P80098
RANTES(1-68) = molecular target: T2, RANTES(1-68)
T2 chain: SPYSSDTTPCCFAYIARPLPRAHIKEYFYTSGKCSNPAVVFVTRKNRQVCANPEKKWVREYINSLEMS

Sequence of MCP-1, P13500 (P13500 whole entry, looked up): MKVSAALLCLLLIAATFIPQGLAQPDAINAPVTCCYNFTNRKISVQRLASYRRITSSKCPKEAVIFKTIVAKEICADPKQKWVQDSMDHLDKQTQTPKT
Sequence of monocyte chemotactic protein-3 (MCP-3), P80098 (P80098 24-99): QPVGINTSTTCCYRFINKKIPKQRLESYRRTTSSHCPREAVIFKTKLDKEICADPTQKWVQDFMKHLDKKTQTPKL

B1: Human CD26/DPP IV (protein)
chain: MKTPWKVLLGLLGAAALVTIITVPVVLLNKGTDDATADSRKTYTLTDYLKNTYRLKLYSLRWISDHEYLYKQENNILVFNAEYGNSSVFLENSTFDEFGHSINDYSISPDGQFILLEYNYVKQWRHSYTASYDIYDLNKRQLITEERIPNNTQWVTWSPVGHKLAYVWNNDIYVKIEPNLPSYRITWTGKEDIIYNGITDWVYEEEVFSAYSALWWSPNGTFLAYAQFNDTEVPLIEYSFYSDESLQYPKTVRVPYPKAGAVNPTVKFFVVNTDSLSSVTNATSIQITAPASMLIGDHYLCDVTWATQERISLQWLRRIQNYSVMDICDYDESSGRWNCLVARQHIEMSTTGWVGRFRPSEPHFTLDGNSFYKIISNEEGYRHICYFQIDKKDCTFITKGTWEVIGIEALTSDYLYYISNEYKGMPGGRNLYKIQLSDYTKVTCLSCELNPERCQYYSVSFSKEAKYYQLRCSGPGLPLYTLHSSVNDKGLRVLEDNSALDKMLQNVQMPSKKLDFIILNETKFWYQMILPPHFDKSKKYPLLLDVYAGPCSQKADTVFRLNWATYLASTENIIVASFDGRGSGYQGDKIMHAINRRLGTFEVEDQIEAARQFSKMGFVDNKRIAIWGWSYGGYVTSMVLGSGSGVFKCGIAVAPVSRWEYYDSVYTERYMGLPTPEDNLDHYRNSTVMSRAENFKQVEYLLIHGTADDNVHFQQSAQISKALVDVGVDFQAMWYTDEDHGIASSTAHQHIYTHMSHFIKQCFSLP
proteolytic processing (overnight incubation, Edman degradation) (MCP-2, P80075): no NH2-terminal sequence could be detected, indicating that CD26/DPP IV does not alter the NH2-terminus of MCPs
proteolytic processing (overnight incubation, Edman degradation) [1]: no NH2-terminal sequence could be detected, indicating that CD26/DPP IV does not alter the NH2-terminus of MCPs
proteolytic processing (overnight incubation, Edman degradation) (MCP-1, P13500): no NH2-terminal sequence could be detected, indicating that CD26/DPP IV does not alter the NH2-terminus of MCPs
proteolytic processing (overnight incubation, Edman degradation) (RANTES(1-68)): CD26/DPP IV treatment of RANTES resulted in the removal of the NH2-terminal dipeptides
